In patent US20110300138A1 (published 2011):
Where two headings read alike, the source gives them in different places.

Columns and labels:
Experiment in all cases: cell-based or functional assay
wild type TSHR (human) [1] = target: wild type TSHR (human) (UniProt P16473)
[2] = target: TSHR with Tyr206 mutated to Ala (human) (UniProt P16473)
wild type TSHR (human) [3] = target: wild type TSHR (human) (UniProt P16473); remark: listed apart in the source
[4] = target: TSHR with Lys209 mutated to Ala (human) (UniProt P16473)
[5] = target: TSHR with Asp43 mutated to Ala, expressed in CHO cells (human) (UniProt P16473)
[6] = target: TSHR with Thr104 mutated to Ala (expressed in CHO cells) (human) (UniProt P16473)
[7] = target: TSHR with Lys58 mutated to Ala expressed in CHO cells (human) (UniProt P16473)
[8] = target: wild type TSHR expressed in CHO cells (human) (UniProt P16473)
[9] = target: TSHR with Arg274 mutated to Ala, expressed in CHO cells (human) (UniProt P16473)

## TSH (ligand)
Wild type TSHR (human) [1]
  Cyclic AMP produced (pmol/mL), TSH 3 ng/mL, wild type TSHR: 92.2 pmol/mL
  Cyclic AMP produced (pmol/mL), TSH (2) 3 ng/mL run at the end of assay, wild type TSHR: 108 pmol/mL
[2]
  % inhibition of TSH stimulation, TSH (2) run at the end of assay, mutated TSHR: 16%
  Cyclic AMP produced (pmol/mL), TSH 3 ng/mL, mutated TSHR: 82.9 pmol/mL
  Cyclic AMP produced (pmol/mL), TSH (2) 3 ng/mL run at the end of assay, mutated TSHR: 69.5 pmol/mL
  Mutated/wild type (%) of cyclic AMP produced; TSH 3 ng/mL: 90%
  Mutated/wild type (%) of cyclic AMP produced; TSH (2) 3 ng/mL, run at the end of assay: 64%
Wild type TSHR (human) [3]
  Cyclic AMP produced (pmol/mL), TSH 3 ng/mL, wild type TSHR: 79 pmol/mL
  Cyclic AMP produced (pmol/mL), TSH (2) 3 ng/mL run at the end of assay, wild type TSHR: 91.5 pmol/mL
[4]
  % inhibition of TSH stimulation, TSH (2) run at the end of assay, mutated TSHR: 18%
  Cyclic AMP produced (pmol/mL), TSH 3 ng/mL, mutated TSHR: 57.9 pmol/mL
  Cyclic AMP produced (pmol/mL), TSH (2) 3 ng/mL run at the end of assay, mutated TSHR: 47.7 pmol/mL
  Mutated/wild type (%) of cyclic AMP produced; TSH 3 ng/mL: 73%
  Mutated/wild type (%) of cyclic AMP produced; TSH (2) 3 ng/mL, run at the end of assay: 52%
[5]
  % inhibition of TSH stimulation, TSH (2) run at the end of assay, mutated TSHR: 0%
  Cyclic AMP produced (pmol/mL), TSH (2) 3 ng/mL run at the end of assay, mutated TSHR: 60.3 pmol/mL
  Mutated/Wild type (%) of cyclic AMP produced, TSH 0.01 ng/mL: 100%
  Mutated/Wild type (%) of cyclic AMP produced, TSH 0.03 ng/mL: 113%
  Mutated/Wild type (%) of cyclic AMP produced, TSH 0.1 ng/mL: 119%
  Mutated/Wild type (%) of cyclic AMP produced, TSH 0.3 ng/mL: 86%
  Mutated/Wild type (%) of cyclic AMP produced, TSH 1 ng/mL: 86%
  Mutated/wild type (%) of cyclic AMP produced; TSH 3 ng/mL: 88%
  Mutated/wild type (%), TSH (2) 3 ng/mL run at the end of assay: 65%
[6]
  % inhibition of TSH stimulation; TSH (2), run at the end of assay: 10%
  Cyclic AMP produced (pmol/mL), TSH 0.01 ng/mL, Experiment 1: 2.58 pmol/mL
  Cyclic AMP produced (pmol/mL), TSH 0.01 ng/mL, Experiment 2: 4.28 pmol/mL
  Cyclic AMP produced (pmol/mL), TSH 0.03 ng/mL, Experiment 1: 3.2 pmol/mL
  Cyclic AMP produced (pmol/mL), TSH 0.03 ng/mL, Experiment 2: 5.71 pmol/mL
  Cyclic AMP produced (pmol/mL), TSH 0.1 ng/mL, Experiment 1: 3.64 pmol/mL
  Cyclic AMP produced (pmol/mL), TSH 0.1 ng/mL, Experiment 2: 9.8 pmol/mL
  Cyclic AMP produced (pmol/mL), TSH 0.3 ng/mL, Experiment 1: 5.38 pmol/mL
  Cyclic AMP produced (pmol/mL), TSH 0.3 ng/mL, Experiment 2: 35.7 pmol/mL
  Cyclic AMP produced (pmol/mL), TSH 1 ng/mL, Experiment 1: 15.8 pmol/mL
  Cyclic AMP produced (pmol/mL), TSH 1 ng/mL, Experiment 2: 57.1 pmol/mL
  Cyclic AMP produced (pmol/mL), TSH 3 ng/mL, Experiment 1: 34.5 pmol/mL
  Cyclic AMP produced (pmol/mL), TSH 3 ng/mL, Experiment 2: 58.5 pmol/mL
  Cyclic AMP produced; TSH 3 ng/mL alone: 63.7 pmol/mL
  Cyclic AMP produced; TSH (2) 3 ng/mL, run at the end of assay: 57 pmol/mL
  Mutated/Wild type (%), TSH 0.01 ng/mL, Experiment 1: 188%
  Mutated/Wild type (%), TSH 0.01 ng/mL, Experiment 2: 204%
  Mutated/Wild type (%), TSH 0.03 ng/mL, Experiment 1: 203%
  Mutated/Wild type (%), TSH 0.03 ng/mL, Experiment 2: 127%
  Mutated/Wild type (%), TSH 0.1 ng/mL, Experiment 1: 199%
  Mutated/Wild type (%), TSH 0.1 ng/mL, Experiment 2: 95%
  Mutated/Wild type (%), TSH 0.3 ng/mL, Experiment 1: 168%
  Mutated/Wild type (%), TSH 0.3 ng/mL, Experiment 2: 100%
  Mutated/Wild type (%), TSH 1 ng/mL, Experiment 1: 99%
  Mutated/Wild type (%), TSH 1 ng/mL, Experiment 2: 79%
  Mutated/Wild type (%), TSH 3 ng/mL, Experiment 1: 72%
  Mutated/Wild type (%), TSH 3 ng/mL, Experiment 2: 74%
  Mutated/wild type (%) of cyclic AMP produced; TSH 3 ng/mL alone: 76%
  Mutated/wild type (%) of cyclic AMP produced; TSH (2) 3 ng/mL, run at the end of assay: 68%
[7]
  % inhibition of TSH stimulation; TSH (2); Experiment 1: 0%
  % inhibition of TSH stimulation; TSH (2); Experiment 2: 1%
  Cyclic AMP produced; TSH 3 ng/mL; Experiment 1: 78.5 pmol/mL
  Cyclic AMP produced; TSH 3 ng/mL; Experiment 2: 96.8 pmol/mL
  Cyclic AMP produced; TSH (2); Experiment 1: 85.2 pmol/mL
  Cyclic AMP produced; TSH (2); Experiment 2: 95.8 pmol/mL
  Mutated/wild type (%) of cyclic AMP produced; TSH 3 ng/mL; Experiment 1: 114%
  Mutated/wild type (%) of cyclic AMP produced; TSH 3 ng/mL; Experiment 2: 99%
  Mutated/wild type (%) of cyclic AMP produced; TSH (2); Experiment 1: 115%
  Mutated/wild type (%) of cyclic AMP produced; TSH (2); Experiment 2: 94%
[8]
  % inhibition of TSH stimulation; TSH (2) 3 ng/mL, run at the end of assay: 0%
  Cyclic AMP produced; TSH 3 ng/mL: 97.1 pmol/mL
  Cyclic AMP produced; TSH (2) 3 ng/mL, run at the end of assay: 109 pmol/mL
[9]
  % inhibition of TSH stimulation; TSH (2) 3 ng/mL, run at the end of assay: 0%
  Cyclic AMP produced; TSH 3 ng/mL: 99.2 pmol/mL
  Cyclic AMP produced; TSH (2) 3 ng/mL, run at the end of assay: 100 pmol/mL
  Mutated/wild type (%) of cyclic AMP produced; TSH 3 ng/mL: 102%
  Mutated/wild type (%) of cyclic AMP produced; TSH (2) 3 ng/mL, run at the end of assay: 92%
